Results reported in US20260097101.

Legend:
[1] = biological target: Native pancreatic polypeptide (PP)

B1: purified porcine DPP-4 (dipeptidyl peptidase-4) (protein)
chain: DSRRTYTLTDYLKSTFRVKFYTLQWISDHEYLYKQENNILLFNAEYGNSSIFLENSTFDELGYSTNDYSVSPDRQFILFEYNYVKQWRHSYTASYDIYDLNKRQLITEERIPNNTQWITWSPVGHKLAYVWNNDIYVKNEPNLSSQRITWTGKENVIYNGVTDWVYEEEVFSAYSALWWSPNGTFLAYAQFNDTEVPLIEYSFYSDESLQYPKTVRIPYPKAGAENPTVKFFVVDTRTLSPNASVTSYQIVPPASVLIGDHYLCGVTWVTEERISLQWIRRAQNYSIIDICDYDESTGRWISSVARQHIEISTTGWVGRFRPAEPHFTSDGNSFYKIISNEEGYKHICHFQTDKSNCTFITKGAWEVIGIEALTSDYLYYISNEHKGMPGGRNLYRIQLNDYTKVTCLSCELNPERCQYYSASFSNKAKYYQLRCFGPGLPLYTLHSSSSDKELRVLEDNSALDKMLQDVQMPSKKLDVINLHGTKFWYQMILPPHFDKSKKYPLLIEVYAGPCSQKVDTVFRLSWATYLASTENIIVASFDGRGSGYQGDKIMHAINRRLGTFEVEDQIEATRQFSKMGFVDDKRIAIWGWSYGGYVTSMVLGAGSGVFKCGIAVAPVSKWEYYDSVYTERYMGLPTPEDNLDYYRNSTVMSRAENFKQVEYLLIHGTADDNVHFQQSAQLSKALVDAGVDFQTMWYTDEDHGIASNMAHQHIYTHMSHFLKQCFSLP
DPP-4 stability (degradation by purified DPP-4, 5 mU, 0-8 h; RP-HPLC and MALDI-ToF) [1]: <2 h | DPP-4 stability (degradation by purified DPP-4, 5 mU, 0-8 h; RP-HPLC and MALDI-ToF) ([P^3]PP): >8 h
